Measurements as given in paper PMC10786891, “Massively parallel profiling of RNA-targeting CRISPR-Cas13d”.

T1: EsCas13d, nuclease-dead (Eubacterium siraeum, UniProt B0MS50, R295A;H300A;R849A;H854A)
T1 sequence: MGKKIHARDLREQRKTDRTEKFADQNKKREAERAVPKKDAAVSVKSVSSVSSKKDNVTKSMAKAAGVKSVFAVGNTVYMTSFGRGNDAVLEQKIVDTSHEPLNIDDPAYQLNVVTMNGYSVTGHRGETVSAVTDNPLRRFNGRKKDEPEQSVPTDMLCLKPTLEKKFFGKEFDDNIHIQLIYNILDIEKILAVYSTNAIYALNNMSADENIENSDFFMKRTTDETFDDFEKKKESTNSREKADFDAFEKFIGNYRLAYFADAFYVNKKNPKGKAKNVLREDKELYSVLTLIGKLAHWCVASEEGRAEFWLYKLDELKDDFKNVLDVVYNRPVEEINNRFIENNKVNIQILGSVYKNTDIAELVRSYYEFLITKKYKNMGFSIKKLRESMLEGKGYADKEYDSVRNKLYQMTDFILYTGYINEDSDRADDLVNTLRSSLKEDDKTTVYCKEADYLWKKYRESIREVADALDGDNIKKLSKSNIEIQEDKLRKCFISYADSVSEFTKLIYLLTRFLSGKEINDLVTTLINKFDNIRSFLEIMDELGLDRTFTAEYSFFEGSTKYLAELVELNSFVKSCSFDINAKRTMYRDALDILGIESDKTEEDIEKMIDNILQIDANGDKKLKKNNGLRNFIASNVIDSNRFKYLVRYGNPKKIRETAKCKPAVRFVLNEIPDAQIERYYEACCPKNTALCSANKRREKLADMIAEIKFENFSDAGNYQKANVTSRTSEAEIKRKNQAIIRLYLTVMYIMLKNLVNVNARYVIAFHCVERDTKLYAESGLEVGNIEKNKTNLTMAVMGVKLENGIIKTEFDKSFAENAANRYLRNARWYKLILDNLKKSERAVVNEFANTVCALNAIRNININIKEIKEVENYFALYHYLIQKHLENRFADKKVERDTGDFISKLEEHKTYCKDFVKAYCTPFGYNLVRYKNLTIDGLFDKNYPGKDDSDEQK

B1: target 1 insC 3' of 17,insU 3' of 13 (mixed)
RNA 1: CACCCGUGCAAAAAUGCAGGGGUCUAAAACUGAGCGGAUAACCUCUCUAUGG
RNA 2: GGGAAUGGAUCCACAUCUACGAAUUCGUACCAUAGCAGAGUGUUAUCCGCUCACCGAGAUCGGAAGAGCACACGU
B2: target 1 A1G,A18G (mixed)
RNA 1: CACCCGUGCAAAAAUGCAGGGGUCUAAAACUGAGCGGAUAACCUCUCUAUGG
RNA 2: GGGAAUGGAUCCACAUCUACGAAUUCGUACCAUGGAGAGGUUAUCCGCUCGCCGAGAUCGGAAGAGCACACGU
B3: target 1 insU 3' of 14,insC 3' of 12 (mixed)
RNA 1: CACCCGUGCAAAAAUGCAGGGGUCUAAAACUGAGCGGAUAACCUCUCUAUGG
RNA 2: GGGAAUGGAUCCACAUCUACGAAUUCGUACCAUAGAGAUGGCUUAUCCGCUCACCGAGAUCGGAAGAGCACACGU
B4: target 1 insG 3' of 14,insG 3' of 3 (mixed)
RNA 1: CACCCGUGCAAAAAUGCAGGGGUCUAAAACUGAGCGGAUAACCUCUCUAUGG
RNA 2: GGGAAUGGAUCCACAUCUACGAAUUCGUACCAUAGAGAGGGUUAUCCGCUGCACCGAGAUCGGAAGAGCACACGU
B5: target 1 insG 3' of 18,insA 3' of 4 (mixed)
RNA 1: CACCCGUGCAAAAAUGCAGGGGUCUAAAACUGAGCGGAUAACCUCUCUAUGG
RNA 2: GGGAAUGGAUCCACAUCUACGAAUUCGUACCAUAGGAGAGGUUAUCCGCAUCACCGAGAUCGGAAGAGCACACGU
B6: target 1 insA 3' of 13,insU 3' of 12 (mixed)
RNA 1: CACCCGUGCAAAAAUGCAGGGGUCUAAAACUGAGCGGAUAACCUCUCUAUGG
RNA 2: GGGAAUGGAUCCACAUCUACGAAUUCGUACCAUAGAGAGAGUUUAUCCGCUCACCGAGAUCGGAAGAGCACACGU
B7: target 1 C4U,G12U (mixed)
RNA 1: CACCCGUGCAAAAAUGCAGGGGUCUAAAACUGAGCGGAUAACCUCUCUAUGG
RNA 2: GGGAAUGGAUCCACAUCUACGAAUUCGUACCAUAGAGAGUUUAUCCGUUCACCGAGAUCGGAAGAGCACACGU
B8: target 1 C2U,A18C (mixed)
RNA 1: CACCCGUGCAAAAAUGCAGGGGUCUAAAACUGAGCGGAUAACCUCUCUAUGG
RNA 2: GGGAAUGGAUCCACAUCUACGAAUUCGUACCAUCGAGAGGUUAUCCGCUUACCGAGAUCGGAAGAGCACACGU
B9: target 1 insG 3' of 11,insA 3' of 3 (mixed)
RNA 1: CACCCGUGCAAAAAUGCAGGGGUCUAAAACUGAGCGGAUAACCUCUCUAUGG
RNA 2: GGGAAUGGAUCCACAUCUACGAAUUCGUACCAUAGAGAGGUGUAUCCGCUACACCGAGAUCGGAAGAGCACACGU
B10: target 1 C6U,G15U (mixed)
RNA 1: CACCCGUGCAAAAAUGCAGGGGUCUAAAACUGAGCGGAUAACCUCUCUAUGG
RNA 2: GGGAAUGGAUCCACAUCUACGAAUUCGUACCAUAGAUAGGUUAUCUGCUCACCGAGAUCGGAAGAGCACACGU
B11: target 1 C2A,U19G (mixed)
RNA 1: CACCCGUGCAAAAAUGCAGGGGUCUAAAACUGAGCGGAUAACCUCUCUAUGG
RNA 2: GGGAAUGGAUCCACAUCUACGAAUUCGUACCAGAGAGAGGUUAUCCGCUAACCGAGAUCGGAAGAGCACACGU
B12: target 1 C7U,C21U (mixed)
RNA 1: CACCCGUGCAAAAAUGCAGGGGUCUAAAACUGAGCGGAUAACCUCUCUAUGG
RNA 2: GGGAAUGGAUCCACAUCUACGAAUUCGUACUAUAGAGAGGUUAUUCGCUCACCGAGAUCGGAAGAGCACACGU
B13: target 1 C2A,U10A (mixed)
RNA 1: CACCCGUGCAAAAAUGCAGGGGUCUAAAACUGAGCGGAUAACCUCUCUAUGG
RNA 2: GGGAAUGGAUCCACAUCUACGAAUUCGUACCAUAGAGAGGUAAUCCGCUAACCGAGAUCGGAAGAGCACACGU
B14: target 1 C4A,C22A (mixed)
RNA 1: CACCCGUGCAAAAAUGCAGGGGUCUAAAACUGAGCGGAUAACCUCUCUAUGG
RNA 2: GGGAAUGGAUCCACAUCUACGAAUUCGUAACAUAGAGAGGUUAUCCGAUCACCGAGAUCGGAAGAGCACACGU
B15: target 1 insA 3' of 12,insG 3' of 3 (mixed)
RNA 1: CACCCGUGCAAAAAUGCAGGGGUCUAAAACUGAGCGGAUAACCUCUCUAUGG
RNA 2: GGGAAUGGAUCCACAUCUACGAAUUCGUACCAUAGAGAGGAUUAUCCGCUGCACCGAGAUCGGAAGAGCACACGU
B16: target 1 insU 3' of 18,insU 3' of 5 (mixed)
RNA 1: CACCCGUGCAAAAAUGCAGGGGUCUAAAACUGAGCGGAUAACCUCUCUAUGG
RNA 2: GGGAAUGGAUCCACAUCUACGAAUUCGUACCAUAUGAGAGGUUAUCCGUCUCACCGAGAUCGGAAGAGCACACGU
B17: target 1 insA 3' of 21,insG 3' of 20 (mixed)
RNA 1: CACCCGUGCAAAAAUGCAGGGGUCUAAAACUGAGCGGAUAACCUCUCUAUGG
RNA 2: GGGAAUGGAUCCACAUCUACGAAUUCGUACCAAGUAGAGAGGUUAUCCGCUCACCGAGAUCGGAAGAGCACACGU
B18: target 1 C2G,G15U (mixed)
RNA 1: CACCCGUGCAAAAAUGCAGGGGUCUAAAACUGAGCGGAUAACCUCUCUAUGG
RNA 2: GGGAAUGGAUCCACAUCUACGAAUUCGUACCAUAGAUAGGUUAUCCGCUGACCGAGAUCGGAAGAGCACACGU
B19: target 1 U8G,G17U (mixed)
RNA 1: CACCCGUGCAAAAAUGCAGGGGUCUAAAACUGAGCGGAUAACCUCUCUAUGG
RNA 2: GGGAAUGGAUCCACAUCUACGAAUUCGUACCAUAUAGAGGUUAGCCGCUCACCGAGAUCGGAAGAGCACACGU
B20: target 1 G5C,G15C (mixed)
RNA 1: CACCCGUGCAAAAAUGCAGGGGUCUAAAACUGAGCGGAUAACCUCUCUAUGG
RNA 2: GGGAAUGGAUCCACAUCUACGAAUUCGUACCAUAGACAGGUUAUCCCCUCACCGAGAUCGGAAGAGCACACGU
B21: target 1 C7A,U8C (mixed)
RNA 1: CACCCGUGCAAAAAUGCAGGGGUCUAAAACUGAGCGGAUAACCUCUCUAUGG
RNA 2: GGGAAUGGAUCCACAUCUACGAAUUCGUACCAUAGAGAGGUUACACGCUCACCGAGAUCGGAAGAGCACACGU
B22: target 1 A9C,A18U (mixed)
RNA 1: CACCCGUGCAAAAAUGCAGGGGUCUAAAACUGAGCGGAUAACCUCUCUAUGG
RNA 2: GGGAAUGGAUCCACAUCUACGAAUUCGUACCAUUGAGAGGUUCUCCGCUCACCGAGAUCGGAAGAGCACACGU
B23: target 1 G12A,G15U (mixed)
RNA 1: CACCCGUGCAAAAAUGCAGGGGUCUAAAACUGAGCGGAUAACCUCUCUAUGG
RNA 2: GGGAAUGGAUCCACAUCUACGAAUUCGUACCAUAGAUAGAUUAUCCGCUCACCGAGAUCGGAAGAGCACACGU
B24: target 1 insC 3' of 10,insA 3' of 3 (mixed)
RNA 1: CACCCGUGCAAAAAUGCAGGGGUCUAAAACUGAGCGGAUAACCUCUCUAUGG
RNA 2: GGGAAUGGAUCCACAUCUACGAAUUCGUACCAUAGAGAGGUUCAUCCGCUACACCGAGAUCGGAAGAGCACACGU
B25: target 1 insA 3' of 15,insA 3' of 4 (mixed)
RNA 1: CACCCGUGCAAAAAUGCAGGGGUCUAAAACUGAGCGGAUAACCUCUCUAUGG
RNA 2: GGGAAUGGAUCCACAUCUACGAAUUCGUACCAUAGAGAAGGUUAUCCGCAUCACCGAGAUCGGAAGAGCACACGU
B26: target 1 insG 3' of 10,insG 3' of 3 (mixed)
RNA 1: CACCCGUGCAAAAAUGCAGGGGUCUAAAACUGAGCGGAUAACCUCUCUAUGG
RNA 2: GGGAAUGGAUCCACAUCUACGAAUUCGUACCAUAGAGAGGUUGAUCCGCUGCACCGAGAUCGGAAGAGCACACGU
B27: target 1 U8C,U11A (mixed)
RNA 1: CACCCGUGCAAAAAUGCAGGGGUCUAAAACUGAGCGGAUAACCUCUCUAUGG
RNA 2: GGGAAUGGAUCCACAUCUACGAAUUCGUACCAUAGAGAGGAUACCCGCUCACCGAGAUCGGAAGAGCACACGU
B28: target 1 insU 3' of 17,insA 3' of 17 (mixed)
RNA 1: CACCCGUGCAAAAAUGCAGGGGUCUAAAACUGAGCGGAUAACCUCUCUAUGG
RNA 2: GGGAAUGGAUCCACAUCUACGAAUUCGUACCAUAGUAAGAGGUUAUCCGCUCACCGAGAUCGGAAGAGCACACGU

Biological target: T1, EsCas13d, nuclease-dead
Assay: crRNA (strand 1, pre-loaded); Mg2+; 40 mM Tris-HCl pH 7.5, 150 mM NaCl, 6 mM MgCl2, 1 mM DTT, 0.1% Tween-20, 0.2 mg/ml BSA; 25 C; 10 min per concentration, then washed
Conditions: tags: His6-TwinStrep-SUMO cleaved; N-terminal SNAP kept (SNAP-Surface 488); label: 3' end held by stalled T7 RNA polymerase

In order of rising Kd:
1. B6  4.2 ± 0.5 nM
2. B14  5.7 ± 0.8 nM
3. B12  6 ± 0.4 nM
4. B25  7.7 ± 0.9 nM
5. B4  7.9 ± 0.4 nM
6. B21  9 ± 0.4 nM
7. B24  12.9 ± 0.6 nM
8. B13  13.9 ± 0.8 nM
9. B9  17.5 ± 1.2 nM
10. B15  18.7 ± 1.6 nM
11. B23  18.7 ± 2.5 nM
12. B17  24 ± 4 nM
13. B26  28.4 ± 2.8 nM
14. B28  30.5 ± 2.2 nM
15. B27  32.5 ± 3.2 nM
16. B10  32.9 ± 1.9 nM
17. B18  33 ± 13 nM
18. B7  36 ± 8 nM
19. B20  38 ± 5 nM
20. B5  43 ± 5 nM
21. B11  48 ± 5 nM
22. B16  48 ± 5 nM
23. B8  48.9 ± 2.9 nM
24. B3  50 ± 10 nM
25. B22  63 ± 10 nM
26. B2  74 ± 21 nM
27. B1  80 ± 40 nM
28. B19  91 ± 14 nM
